Source: US20260286413A1, “HYALURONAN SYNTHESIS, SECRETION AND LENGTH CONTROL” (UNIVERSITY OF VIRGINIA, priority 2023, published 2026)
Positions count from the first letter of the chain named. Numbers in names are those of the source.

What was measured:
X1HAS1 [1] = biological target: T1, X1HAS1 (Xenopus laevis, UniProt P13563); assay: Substrate turnover rate quantification (UDP release, enzyme-coupled assay); format: biochemical; details: one substrate titrated at saturating concentration of the other; real-time quantification of released UDP; read-out: Michaelis-Menten constant
T1 construct: dodeca-histidine (His12) (N); made in house; host or cells: Spodoptera frugiperda Sf9 cells (baculovirus)
T1 sequence (P13563 1-588): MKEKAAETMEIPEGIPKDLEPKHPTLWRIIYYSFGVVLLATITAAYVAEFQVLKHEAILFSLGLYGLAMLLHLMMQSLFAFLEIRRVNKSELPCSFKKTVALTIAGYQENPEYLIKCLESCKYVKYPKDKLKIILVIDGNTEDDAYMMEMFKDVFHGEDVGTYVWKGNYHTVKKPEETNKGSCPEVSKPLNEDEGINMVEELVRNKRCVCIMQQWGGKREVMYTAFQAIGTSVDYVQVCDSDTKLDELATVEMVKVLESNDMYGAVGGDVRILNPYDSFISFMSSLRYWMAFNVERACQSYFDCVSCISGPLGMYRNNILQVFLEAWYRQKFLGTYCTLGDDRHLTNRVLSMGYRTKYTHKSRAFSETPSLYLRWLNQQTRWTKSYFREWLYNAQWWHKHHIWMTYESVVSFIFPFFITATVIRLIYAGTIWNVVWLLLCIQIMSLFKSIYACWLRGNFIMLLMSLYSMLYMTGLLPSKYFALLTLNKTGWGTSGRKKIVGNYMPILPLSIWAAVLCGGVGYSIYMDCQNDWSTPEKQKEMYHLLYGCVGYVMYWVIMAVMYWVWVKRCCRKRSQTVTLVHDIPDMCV
Experimental: (§1) UDP release during HA synthesis was quantified using an enzyme-coupled assay as previously described (10, 13). Depletion of NADH was monitored at 340 nm every 60 s for 3 hours at 37° C. in a SpectraMax instrument. The raw data was processed in MS Excel and a linear phase of each reaction was determined. The rate of NADH depletion was converted to pmoles of UDP released using a UDP standardized plot (FIG. S1C) for Michaelis-Menten constant determination using GraphPad Prism. For substrate turnover rate quantification of X1HAS1 mutants, pmoles of released UDP were converted to the number of corresponding substrate turnovers per molecule of X1HAS1, per minute. Data is presented relative to wild type activity. All experiments were performed in four to eight replicates and error bars represent standard deviation from the means.
(§2) HAS transfers the UDP-activated glycosyl unit (the donor sugar) to the non-reducing end of the nascent HA polymer (the acceptor sugar). This reaction generates UDP and elongated HA as reaction products (FIG. 1A). Catalytic activity can be assessed by monitoring the release of UDP in an enzyme-coupled reaction, as previously described (10, 13), or quantifying HA, either radiometrically or by dye staining following electrophoresis.

X1HAS1 [2] = assay: Electrophoretic HA size determination (agarose gel, Stains-all) of in vitro synthesized HA; format: biochemical, Xenopus laevis; details: for HA product versus WT: short and long reactions (1 h or 8 h), not distinguished; for HA size difference versus WT product: from differences in electrophoretic mobility; for HA product versus WT, long reaction: 8 h synthesis reaction
Experimental: To assess the size of HA synthesized by X1HAS1, similar reaction conditions were applied to the ones described above. […] […] Controls were carried out by digesting the synthesized polymers with hyaluronidase. Synthesis reactions were mixed with SDS-PAGE loading dye and applied to a 1% agarose gel (Ultra-pure agarose, Invitrogen) casted in an Owl B2 system (ThermoFisher). […] After the run, the gel was equilibrated in 50% ethanol for 1.5 h and subjected to staining in 0.05% Stains-all (Sigma) in 50% ethanol overnight under light-protection. Post-staining background was reduced by soaking the gel in 20% ethanol for 3-7 days in the dark. The migration of the synthesized HA species was compared to HA standards from Streptococcus equi (Sigma), as well as enzymatically generated ladders: HA LoLadder and HA HiLadder (Hyalose).

X1HAS1 [3] = assay: Substrate turnover rate quantification (UDP release, enzyme-coupled assay); format: biochemical, Xenopus laevis; details: UDP release; for substrate turnover rate / catalytic rate relative to WT: normalized to WT
Experimental: as §1, §2

Molecule `O=C(O)[C@H]1O[C@H](OP(=O)(O)OP(=O)(O)OC[C@H]2O[C@@H](n3ccc(=O)[nH]c3=O)[C@H](O)[C@@H]2O)[C@H](O)[C@@H](O)[C@@H]1O` [UDP-GlcA, reference compound] has a Km (X1HAS1 [1]) of about 370 µM.

B1: W491A: X1HAS1 mutant, Trp491 of WGTSGRK/R motif replaced with Ala (protein, UniProt P13563 1-588, looked up, variant W491A)
Hyaluronan synthase 1: T1 sequence (P13563 1-588) with W491A
With B1 the “HA product versus WT, short reaction” value (X1HAS1 [2]) was “abolishes HA biosynthesis” and the “substrate turnover / catalytic activity compared to WT” value (X1HAS1 [3]) was “abolished”.

B2: C337S: X1HAS1 mutant, Cys337 replaced with Ser (protein, UniProt P13563 1-588, looked up, variant C337S)
Hyaluronan synthase 1: T1 sequence (P13563 1-588) with C337S
B2 was tested, and the “HA product versus WT” value (X1HAS1 [2]) was “slight length reduction”.

B3: R381K: X1HAS1 mutant, Arg381 replaced with Lys (protein, UniProt P13563 1-588, looked up, variant R381K)
Hyaluronan synthase 1: T1 sequence (P13563 1-588) with R381K
In the case of B3, the “substrate turnover / catalytic activity compared to WT” value (X1HAS1 [3]) is reported as “cannot be replaced”.

B4: H72A: X1HAS1 mutant, His72 replaced with Ala (protein, UniProt P13563 1-588, looked up, variant H72A)
Hyaluronan synthase 1: T1 sequence (P13563 1-588) with H72A
B4 was tested, and the “HA product versus WT, short reaction” value (X1HAS1 [2]) was “reduced length” and the “substrate turnover rate / catalytic rate relative to WT” value (X1HAS1 [3]) was 50-75%.

B5: K218R: X1HAS1 mutant, Lys218 replaced with Arg (protein, UniProt P13563 1-588, looked up, variant K218R)
Hyaluronan synthase 1: T1 sequence (P13563 1-588) with K218R
For B5, the “HA product versus WT” value (X1HAS1 [2]) was “abolishes” and the “substrate turnover / catalytic activity compared to WT” value (X1HAS1 [3]) was “abolishes”.

B6: K218A: X1HAS1 mutant, Lys218 replaced with Ala (protein, UniProt P13563 1-588, looked up, variant K218A)
Hyaluronan synthase 1: T1 sequence (P13563 1-588) with K218A
In the case of B6, the “HA product versus WT” value (X1HAS1 [2]) is reported as “abolishes” and the “substrate turnover / catalytic activity compared to WT” value (X1HAS1 [3]) is reported as “abolishes”.

B7: R296A: X1HAS1 mutant, Arg296 replaced with Ala (protein, UniProt P13563 1-588, looked up, variant R296A)
Hyaluronan synthase 1: T1 sequence (P13563 1-588) with R296A
With B7 the “HA product versus WT” value (X1HAS1 [2]) was “short HA oligosaccharide species” and the “substrate turnover rate / catalytic rate relative to WT” value (X1HAS1 [3]) was about 30%.

B8: C307S: X1HAS1 mutant, Cys307 replaced with Ser (protein, UniProt P13563 1-588, looked up, variant C307S)
Hyaluronan synthase 1: T1 sequence (P13563 1-588) with C307S
With B8 the “HA product versus WT” value (X1HAS1 [2]) was “low amounts of polydisperse HA”.

B9: T493S: X1HAS1 mutant, Thr493 replaced with Ser (protein, UniProt P13563 1-588, looked up, variant T493S)
Hyaluronan synthase 1: T1 sequence (P13563 1-588) with T493S
For B9, the “HA product versus WT, short reaction” value (X1HAS1 [2]) was “exceeding the size of the WT product”, the “HA size difference versus WT product” value (X1HAS1 [2]) was “up to 0.5 MDa” and the “substrate turnover rate / catalytic rate relative to WT” value (X1HAS1 [3]) was 20-25%.

B10: K448A: X1HAS1 mutant, Lys448 replaced with Ala (protein, UniProt P13563 1-588, looked up, variant K448A)
Hyaluronan synthase 1: T1 sequence (P13563 1-588) with K448A
For B10, the “HA product versus WT, short reaction” value (X1HAS1 [2]) was “reduced length” and the “substrate turnover rate / catalytic rate relative to WT” value (X1HAS1 [3]) was 50-75%.

B11: R287K: X1HAS1 mutant, Arg287 replaced with Lys (protein, UniProt P13563 1-588, looked up, variant R287K)
Hyaluronan synthase 1: T1 sequence (P13563 1-588) with R287K
In the case of B11, the “HA product versus WT” value (X1HAS1 [2]) is reported as “polydisperse”.

B12: R287A: X1HAS1 mutant, Arg287 replaced with Ala (protein, UniProt P13563 1-588, looked up, variant R287A)
Hyaluronan synthase 1: T1 sequence (P13563 1-588) with R287A
With B12 the “HA product versus WT” value (X1HAS1 [2]) was “short HA oligosaccharide species” and the “substrate turnover rate / catalytic rate relative to WT” value (X1HAS1 [3]) was “about 15%”.

B13: H72F: X1HAS1 mutant, His72 replaced with Phe (protein, UniProt P13563 1-588, looked up, variant H72F)
Hyaluronan synthase 1: T1 sequence (P13563 1-588) with H72F
In the case of B13, the “HA product versus WT, short reaction” value (X1HAS1 [2]) is reported as “reduced length”, the “HA product versus WT, long reaction” value (X1HAS1 [2]) is reported as “equivalent to or exceeding the HA length obtained from the WT enzyme” and the “substrate turnover rate / catalytic rate relative to WT” value (X1HAS1 [3]) is reported as “about 10%”.

B14: K448R: X1HAS1 mutant, Lys448 replaced with Arg (protein, UniProt P13563 1-588, looked up, variant K448R)
Hyaluronan synthase 1: T1 sequence (P13563 1-588) with K448R
In the case of B14, the “HA product versus WT, short reaction” value (X1HAS1 [2]) is reported as “reduced length”, the “HA product versus WT, long reaction” value (X1HAS1 [2]) is reported as “equivalent to or exceeding the HA length obtained from the WT enzyme” and the “HA size difference versus WT product” value (X1HAS1 [2]) is reported as “up to 0.5 MDa”. For the same molecule, the “substrate turnover rate / catalytic rate relative to WT” value (X1HAS1 [3]) was 50-75%.

B15: R296K: X1HAS1 mutant, Arg296 replaced with Lys (protein, UniProt P13563 1-588, looked up, variant R296K)
Hyaluronan synthase 1: T1 sequence (P13563 1-588) with R296K
B15 was tested, and the “HA product versus WT” value (X1HAS1 [2]) was “low molecular weight”.

B16: T493A: X1HAS1 mutant, Thr493 replaced with Ala (protein, UniProt P13563 1-588, looked up, variant T493A)
Hyaluronan synthase 1: T1 sequence (P13563 1-588) with T493A
With B16 the “HA product versus WT, short reaction” value (X1HAS1 [2]) was “exceeding the size of the WT product” and the “substrate turnover rate / catalytic rate relative to WT” value (X1HAS1 [3]) was 20-25%.

B17: W491F: X1HAS1 mutant, Trp491 replaced with Phe (protein, UniProt P13563 1-588, looked up, variant W491F)
Hyaluronan synthase 1: T1 sequence (P13563 1-588) with W491F
In the case of B17, the “HA product versus WT, short reaction” value (X1HAS1 [2]) is reported as “lower molecular weight product” and the “substrate turnover / catalytic activity compared to WT” value (X1HAS1 [3]) is reported as “reduced”.

B18: R496K: X1HAS1 mutant, Arg496 replaced with Lys (protein, UniProt P13563 1-588, looked up, variant R496K)
Hyaluronan synthase 1: T1 sequence (P13563 1-588) with R496K
In the case of B18, the “HA product versus WT, short reaction” value (X1HAS1 [2]) is reported as “slightly increased length” and the “HA product versus WT, long reaction” value (X1HAS1 [2]) is reported as “greater polydispersity”.

B19: R381A: X1HAS1 mutant, Arg381 of QxxRW motif replaced with Ala (protein, UniProt P13563 1-588, looked up, variant R381A)
Hyaluronan synthase 1: T1 sequence (P13563 1-588) with R381A
With B19 the “substrate turnover / catalytic activity compared to WT” value (X1HAS1 [3]) was “cannot be replaced”.

B20: C307A: X1HAS1 mutant, Cys307 replaced with Ala (protein, UniProt P13563 1-588, looked up, variant C307A)
Hyaluronan synthase 1: T1 sequence (P13563 1-588) with C307A
In the case of B20, the “HA product versus WT” value (X1HAS1 [2]) is reported as “low amounts of polydisperse HA”.

B21: R496A: X1HAS1 mutant, Arg496 replaced with Ala (protein, UniProt P13563 1-588, looked up, variant R496A)
Hyaluronan synthase 1: T1 sequence (P13563 1-588) with R496A
For B21, the “substrate turnover / catalytic activity compared to WT” value (X1HAS1 [3]) was “abolishes catalytic activity”.
